Assay results published in the nanobody polyreactivity screen of Harvey et al. (2022).

Experiment: yeast display, Sf9 membrane polyspecificity reagent, FACS + sequencing; frameworks hold sequencing errors
Outline: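 Sorting gates, low and high (top ~1%), were placed on anti-HA fluorescence to track expression and on streptavidin fluorescence to track reagent binding. A clone's polyreactivity label is taken from the gate it came out of. The reagent was 10% biotinylated, detergent-solubilized Sf9 membrane, applied for 1 hour at 4 °C to galactose-induced yeast display cells.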

| Sequence | polyreactivity (PSR sort gate) |
| --- | --- |
| QVQLVESGGGLVQAGGSLRLSCAASGSIFSYYAMGWYRQAPGKERELVAAISKRGASTYYADSVKGRFTISRDNAKNTVYLQMNSLKPEDTAVYYCNRVLYDHSFPYNRGYDYWGQGTQVTVSS | high polyreactivity |
| QVQLVESGGGLVQAGGSLRLSCAASGSIFSYYAMGWYRQAPGKERELVAAISYSGSDTYYADSVKGRFTISRDNAKNTVSFQMNSLKPEDTAVYYCAAEDPSYSYHYWGQGTQVTVSS | low polyreactivity |
| QVQLVESGGGLVQAGGSLRLSCAASGSIFSYYAMGWYRQAPGKERELVAAITRSGSKNYADSVKGRFTISRDNAKNTVYLQMNSLKPEDTAVYYCAAETDESDWYYYWGQGTQVTVSS | high polyreactivity |
| QVQLVESGGGLVQAGGSLRLSCAASGSIFSYYAMGWYRQAPGKERELVAAITVRGGSTYYADSVKGRFTISRDNAKNTVYLQMNSLKPEDTAVYYCAADWLDESFSYGPYYYWGQGTQVTVSS | low polyreactivity |
| QVQLVESGGGLVQAGGSLRLSCAASGSIFSYYAMGWYRQAPGKERELVAGISISTGSTYYADSVKGRFTISRDNAKNTVYLQMNSLIPEDTAVYYCNASALDPLYAKDDYWGQGTQVTVSS | low polyreactivity |
| QVQLVESGGGLVQAGGSLRLSCAASGSIFSYYAMGWYRQAPGKERELVARITRGGDGTYYADSVKGRFTISRDNAKNTDYLQMNSLKPEDTAVYYCARRQVLYTRDFEYDYWGQGTQVTVSS | low polyreactivity |
| QVQLVESGGGLVQAGGSLRLSCAASGSIFSYYAMGWYRQAPGKERELVASISWNGTSTYYADSVKGRFTISRDNAKNTVDLQMNSLKPEDTADYYCNVRFNYRGTYDYWGQGTQVTVSS | low polyreactivity |
| QVQLVESGGGLVQAGGSLRLSCAASGSIFSYYAMGWYRQATAKERDLVAAISTSCGNTYYADSVKGRFTISRDNPKNRVYVQMNSLKPEDTAVYYCAAENVWAWFYGYDYWGQGTQVTVSS | high polyreactivity |
| QVQLVESGGGLVQAGGSLRLSCAASGSIFSYYAMGWYRQEPGKERELVAAITWSGTRTYYADSVKGRFTISRDNAKNTVYLQMISLKPEDTAVYYCATEYDYWDDSYDSWGLGTQVTVSS | low polyreactivity |
| QVQLVESGGGLVQAGGSLRLSCAASGSIFSYYGMGWYRQAPGKERELVAAITDGDGTNYADSVKGRFTISRDNAKNTVYLQMNSLKPEDTAVYYCARDDRDIRGESGREGFLYDYWGQGTQVTVSS | low polyreactivity |
| QVQLVESGGGLVQAGGSLRLSCAASGSIFSYYTMGWYRQAPGKERELVAAITRGGRTSYADSVKGRFTISRDNAKNTVYLQMNSLKPEDTAVYYCAADYWYFTHQLSTYGDNYWGQGTQVTVSS | low polyreactivity |
| QVQLVESGGGLVQAGGSLRLSCAASGSIFTDNAMGWYRQAPGKERALVAAISWIGDSTDYADSVKGRFTISRDNAKNTVYLQMNSLKPDDTAVYFCAADAKVVSPLYRANDIGMYYWGQGTQVTVSS | low polyreactivity |
| QVQLVESGGGLVQAGGSLRLSCAASGSIFTDNAMGWYRQAPGKERELVAAITGRGGNTYYADSVKGRFTISRDNAKNTVYLQMNSLKPEDTAVYYCAARIFRTRKPLGYWGQGTQVTVSS | high polyreactivity |
| QVQLVESGGGLVQAGGSLRLSCAASGSIFTENDMGWYRQAPGKEREMVAAIDWDGGRTYYADSVKGRFTISRDNAKNTVYLQMNSLKPEDTAVYYCNKGRYWSNYFYWPSTHVYWGQGTQVTVSS | high polyreactivity |
| QVQLVESGGGLVQAGGSLRLSCAASGSIFTFNAMGWYRQAPGKERELVASINWSGGSTYYADSVKGRFTISRDNAKNTVYLQMNSLKPEDTAVYYCNKRRNGYGSQFYYPYDYWGQGTQVTVSS | low polyreactivity |
| QVQLVESGGGLVQAGGSLRLSCAASGSIFTFNAMGWYRQAPGKERELVATISRRTGSTYYADSVKGRFTISRDNAKNTVYLQMNSLKPEDTAVYYCAARRRVYWYNHYNYWGQGTQVTVSS | high polyreactivity |
| QVQLVESGGGLVQAGGSLRLSCAASGSIFTFYAMGWYIQAPGKERELVAAISSGGDTYYADSVKGRFTISRDNAKNTVYLQKNILKPEDTAVYYCAADWRGSYLYGYYYWGQGTQVTVSS | low polyreactivity |
| QVQLVESGGGLVQAGGSLRLSCAASGSIFTFYAMGWYRQAPGKERELVATITWSGGSTFYADSVKGRFTISRDNAKNTVYLQMNSLKPEDTAVYYCAAYRVDYSDAYYYWGQGTQVTVSS | low polyreactivity |
| QVQLVESGGGLVQAGGSLRLSCAASGSIFTGYAMGWSRQAPGKEREMLAAISWSGGSTSYADSVKGRFTISRDNAKNTVYLQMNSLKPEDTAVYYCSTDVRQGSGWRYYYWGQGTQVTVSS | high polyreactivity |
| QVQLVESGGGLVQAGGSLRLSCAASGSIFTGYAMGWYRQAPGKERELVAAITYGSGRTYYADSVKGRFTISRDNAKNTLYLQMNSLKPEDTAVYYCAAKWSPYYYYIGYDYWGQGTQVTVSS | low polyreactivity |
| QVQLVESGGGLVQAGGSLRLSCAASGSIFTGYAMGWYRQAPGKERELVARITKRGGSTYYADSVKGRFTISRDNAKNTVYLQMNSLKPEDTAVFYCNADRKFPYGSYETHDYWGQGTQVTVSS | high polyreactivity |
| QVQLVESGGGLVQAGGSLRLSCAASGSIFTHNAMGWYRQAPGKERELVAAISTSGGRTYYADSVKGRFTISRDNAKNTVYLQMNSLKPEDTAVYYCAKLSTARYDYWGQGTQVTVSS | high polyreactivity |

| Sequence | polyreactivity (PSR sort gate) |
| --- | --- |
| QVQLVESGGGLVQAGGSLRLSCAASGSIFTHNDMGWYRQAPGQERELVAAISSGGSTNYADSVTGRFTISRDNAKNTVYLQMNSLIPVETAVYYCAKSIDGWYWRRRRYDYWGQGTQVTVSS | low polyreactivity |
| QVQLVESGGGLVQAGGSLRLSCAASGSIFTKYAMGWYIQAPGKEREFVAAITLSGGSTYYADSVKGRFTISRDNAKNTVYLQMNSLKPEDTAVYYCNAAYTYVTAWYYYWGQGTQVTVSS | high polyreactivity |
| QVQLVESGGGLVQAGGSLRLSCAASGSIFTKYAMGWYRQAPGKERELVAAINARGGSTYYADSVKGRFTISRDNAKNTVYLQMNSLKPEDTAVYYCAARYGVGRADYYWGQGTQVTVSS | high polyreactivity |
| QVQLVESGGGLVQAGGSLRLSCAASGSIFTLYAMGWYRQAPGKERELVAAITRSGGSTYYADSVKGRFTISRDNAKNTVYLQMNSLKPEDTAVYYCAADKAPYSTEGDYWGQGTQVTVSS | high polyreactivity |
| QVQLVESGGGLVQAGGSLRLSCAASGSIFTLYSMGWYRQAPGKERELVATINWSGGSTSYADSVKGRFTISRDNAKYTVYLQMNSLKADDTAVYYCAADYYFWHGTGYDYWGQGTQVNVSS | low polyreactivity |
| QVQLVESGGGLVQAGGSLRLSCAASGSIFTNYAMGWYRQAPGKERELVAAISVGGGRTYYADSVKGRFTISRDNAKNTVYLQMNSLKPEDTAVYYCAASRRTRSMNYWGQGTQVTVSS | high polyreactivity |
| QVQLVESGGGLVQAGGSLRLSCAASGSIFTNYPMGCYRQAPGKERELVAAISQSGDTTYYADSVKGRFTISRDNAKNTVYLQMNSLKPEDSSVYYCAAQYYRWFYYWGQGTQVTVSS | high polyreactivity |
| QVQLVESGGGLVQAGGSLRLSCAASGSIFTPYAMGWSRQAPGKLRELVADISRSGSTNYADSVKGRFTISRDNAKNTVYLQMNSLKPEDTAVYYCNADFWWHWGTSYVYWGQGTQVTVSS | high polyreactivity |
| QVQLVESGGGLVQAGGSLRLSCAASGSIFTPYAMGWYRQAPGKEREFVADIDDSGGGTYADSVKGRFTISRDNAKNTVYLQMNSLKPEDTAVYYCNADTGIWDYRFVDRDYWGQGTQVTVSW | low polyreactivity |
| QVQLVESGGGLVQAGGSLRLSCAASGSIFTPYAMGWYRQAPGKERELVAGIRSSGGRTYYADSVKGRFTISRDNAKNTVYLQMNSLKPEDTAVYYCAARVGGIYRNDYWGQGTQVTVSS | low polyreactivity |
| QVQLVESGGGLVQAGGSLRLSCAASGSIFTQNAMGWYRQAPGKERELVAAITSTGGSTYYADSVKGRFTISRDNAKNTVYLQMNSLKPEDTAVYYCNADGFRRAALHDYWGQGTQVTVSS | high polyreactivity |
| QVQLVESGGGLVQAGGSLRLSCAASGSIFTQYAMGWYRQAPGKEREFVARITGSGGRTYYADSVKGRFTISRDNAKNTVYLQMNSLKPEDTAVYYCAARDVRPYYVKPPVRYYYWGQGTQVTVSS | high polyreactivity |
| QVQLVESGGGLVQAGGSLRLSCAASGSIFTQYAMGWYRQAPGKERELVARITGSGGRTYYADSVKGRFTISRDNAKNTVYLQMNSLKPEDTAVYYCAARDVRPYYVKPPVRYYYWGQGTQVTVSS | high polyreactivity |
| QVQLVESGGGLVQAGGSLRLSCAASGSIFTQYTMGWYRQAPGKERELVAAISRSGGRTYYADSVKGRFTISRDNSKNTVYLQMKSLKPEDTAVYYCAAEYTDKYEYWGQGTQVTVSS | high polyreactivity |
| QVQLVESGGGLVQAGGSLRLSCAASGSIFTRNAMGWYRQAPGKERELVASISYSGGNTYYADSVKGRFTISRDNAKNTVYLQMNSLKPEDTAVYYCNARRWFYLLYGYDYWGQGTQVTVSS | high polyreactivity |
| QVQLVESGGGLVQAGGSLRLSCAASGSIFTRYVMGWYRQARGKERELVASISGRGSSTYYADSVKGRFTISRDNAKNTVYLQMNSLKPEDTAVYYCAAEIVVFYSEGQRNTFYYWGQGTQVTVSS | high polyreactivity |
| QVQLVESGGGLVQAGGSLRLSCAASGSIFTSNAMGWYRQAPGKERELVAVISRRGGSTYYADSVKGRFTISRDNAKNTVYLQMNSLKPEDTAVYYCARRPYSYTRYEYWGQGTQVTVSS | low polyreactivity |
| QVQLVESGGGLVQAGGSLRLSCAASGSIFTSYAMVWYRQAPGKERELVAAITSGGSTYYAHSVKGRFTISRDNAKKTVYLLMNSLKPEDTAVYYCAALQVRTSKLHMGYWGQGTQVTVSS | low polyreactivity |
| QVQLVESGGGLVQAGGSLRLSCAASGSIFTTYAMGWSRQAPGKERELVAAITTSGGRTYYADSVKGRFTISRDNAKNTVYLQMNSLKPDDTAVYYCNAVRGGRYGLDYWGQGTQVTVSS | high polyreactivity |
| QVQLVESGGGLVQAGGSLRLSCAASGSIFTVNAMGWYIQAPGIERELVAAIDGSSGSTNYADSVKGRFTISRDIAKNTVYLQMNSLKPEDTAVYYCAADWSYEYGYWGQGTQVTVSS | low polyreactivity |
| QVQLVESGGGLVQAGGSLRLSCAASGSIFTVNAMGWYRQAPGKEMEFVAAITGGGTSTYYADSVKGRFTISRDNAKNTVYLQMNSLTPEVTAVYYCAATTYHYSPTYGYWGQGTQVTVSS | low polyreactivity |
